Measured values: patent US20140079722A1, “EXTRACELLULAR TARGETED DRUG CONJUGATES” (CENTROSE, LLC, priority 2011, published 2014)

How the values were obtained:
[1] = Pharmacokinetics and serum stability, antibody and drug specific ELISA; format: in vivo, Balb/c mice; details: for serum half-life of the antibody portion / serum half-life of the steroid drug portion: Balb/c mice; for serum half-life of the antibody portion: EDC drug loading of 3; for serum half-life of the steroid drug portion: drug loading of 3; for serum stability half-life of the EDC: from ratio of slopes of serum decay of drug and antibody portions
Protocol: The steroid drug pharmacokinetics of M53-PEG24-CEN09-106 were measured using the drug specific ELISA described below. The comparison between the two ELISA results (antibody concentrations minus drug concentrations) was used to determine the rate of drug breakdown and thus examine M53-PEG24-CEN09-106 stability.
Serum was isolated from blood samples acquired by retro-orbital blood collection at 1, 2, 4, 8, 16, 26, and 40 days post-injection. […] Plasma concentrations of the steroid drug in M53-PEG24-CEN09-106 were measured as follows. Antigen coated ELISA plates were washed (×3) with PBS pH 7, blocked 30 min with PBS pH 7 containing 1% NFDM (PBS+NFDM), and then washed (×3) with PBS, pH 7. Diluted serum samples and standard curves of M53-PEG24-CEN09-106 were prepared in the above blocking buffer and applied to coated wells, incubated 30 min at RT, and the wells were washed (×3) with PBS, pH 7. Biotinylated 25C2E3 (a monoclonal IgG1 antibody specific for the steroid portion of PEG24-CEN09-106 and conjugated to biotin [Thermo Scientific, PN 21911]) was diluted to 100 ng/mL in PBS+NFDM and added (100 uL) to each well, incubated 30 min at RT, and the wells washed (×3) with PBS, pH 7. PNPP at 1 mg/mL in 1M DEA with 50 mM MgCl2, pH 9.8 was added (100 uL per well), and the absorbance at 405 nm was determined using a Wallac Victor^2 Model 1420-041 assay plate reader (Perkin Elmer, Gaithersburg, Md.) every 5 minutes for a total of 6 reads.
For both ELISAs, absorbance values from known standards were plotted as absorbance over time, generating a linear slope for each concentration. The slopes generated were then plotted against the respective concentrations of the standards, creating a second linear plot. The absorbance values for the unknown serum samples were plotted over time, establishing a slope for unknown sample. The linear estimate from the slope versus concentration plot was then used to extrapolate concentrations for each unknown sample based on their slope.
To determine serum stability of the intact EDC (drug release from the antibody over time) in these samples, the ratio of the slopes of serum decay of the drug portion to the serum decay of the antibody portion were calculated.

[2] = Single-dose tolerated dose (MTD), tail vein; format: in vivo, BALB/c mice
Protocol: EDC M53-PEG24-CEN09-106 preparations with drug loading of 2, 5 or 9 drugs per antibody were administered to BALB/c mice (Harlan Laboratories, n=1) in a single dose of 25, 50, 100 and 200 mg/kg via the tail vein to determine single-dose MTDs. Mice were monitored daily for 24 days, and both weight and clinical observations were recorded (weight measured at least twice a week and evaluation for overt signs of toxicity conducted at least twice a day).

H460 xenograft = H460 xenograft model; format: in vivo, Hsd:Athymic Nude-Foxn1nu mice
Protocol: Briefly, to establish a large-cell lung cancer disease model, 1×10^6 H-460 cells in 100 μL RPMI1640+30% Matrigel HC (BD Biosciences, San Jose, Calif.) were implanted into the left flank of Hsd:Athymic Nude-Foxn1^nu mice (Harlan, Indianapolis, Ind.). Therapy was initiated when the tumor size in groups of 5 animals averaged ˜200 mm^3. Treatment using vehicle control, M53-PEG24-CEN09-106 at 0.1 and 1 mg/kg, and 10 mg/kg control M53-PEG24-CEN09-106 (as described above) consisted of multiple i.v. injections using the schedule of one injection every 7 days for 2 injections (q7d×2). Paclitaxel served as a positive control treatment group and was dosed i.v. at 15 mg/kg using the schedule of one injection every 2 days for 5 injections (q2d×5). Using this schedule, tumor volumes were measured for each group using calibrated vernier calipers and plotted against day of tumor implant for 24 days post-implant and 12 days post-initial dose, graphed and shown in FIG. 5.

PANC-1 xenograft = PANC-1 xenograft model, alone and with gemcitabine; format: in vivo, C.B-17/IcrHsd-Prkdc scid Lyst bg mice
Protocol: A disease model of pancreatic cancer was established by implanting 5×10^6 PANC-1 cells in 100 μL DMEM into the left flank of 7 week old female C.B-17/IcrHsd-Prkdc^scidLyst^bg mice. Mice were then treated with M53-PEG24-CEN09-106 with a drug loading of 8 and/or gemcitabine when the tumor size in groups of 3 animals averaged ˜500 mm^3. Treatments consisted of either vehicle control, M53-PEG24-CEN09-106 at 0.2, 1 and 5 mg/kg, with and without 60 mg/kg gemcitabine or 60 mg/kg gemcitabine alone and consisted of multiple injections using the M53-PEG24-CEN09-106 schedule of one injection every 7 days for 3 injections (q7d×3) administered i.v. and the gemcitabine schedule of one injection every 3 days for 5 injections (q3d×5) administered i.p. Tumor volumes were measured for each group using calibrated vernier calipers and plotted against first day of tumor implant for 28 days post-initial dose, graphed and shown in FIG. 6.

B1: M53-PEG24-CEN09-106: Class 1 EDC: antibody M53 conjugated to linker-ready agent PEG24-CEN09-106 (scillarenin, 4-amino-xyloside, PEG24) (conjugate)
heavy: EVQLVESGGGLVQPKGTLKLSCAASGFSFNTHAMNWVRQAPGKSLEWVARTMSKSNNYATYYADSVKDRFIIRADDSQSMLYLQMNNLKTEDTAMYYCVRDDPKRGMDYWGQGTSVTVSSAKTTPPSVYPLAPGSAAQTNSMVTLGCLVKGYFPEPVTVTWNSGSLSSGVHTFPAVLQSDLYTLSSSVTVPSSTWPSETVTCNVAHPASSTKVDKKIE
light: GIVMSQSPSSLAVSVGEKVTMSCKPSQSLLYSRNQKIYLAWYQQKPGQSPKLLIYWASTRESGVPDRFTGSGSGTDFTLIISSVRAEDLAVYYCQQYYNYPLTFGAGTKLELKRADAAPTVSIFPPSSEQLTSGGASVVCFLNNFYPKDINVKWKIDGSERQNGVLNSWTDQDSKDSTYSMSSTLTLTKDEYERHNSYTCEATHKTSTSPIVKSFNR
For B1, the “serum half-life of the antibody portion” value ([1]; 1 mg/kg tail vein) was 11.9 days, the “serum half-life of the steroid drug portion” value ([1]; 1 mg/kg tail vein) was 11 days and the “serum stability half-life of the EDC” value ([1]; 1 mg/kg) was 45 days. The “serum half-life of the antibody portion” value ([1]; 10 mg/kg tail vein) was 9.2 days, the “serum half-life of the steroid drug portion” value ([1]; 10 mg/kg tail vein) was 8 days and the “serum stability half-life of the EDC” value ([1]; 10 mg/kg) was 39 days. For the same molecule, the clinical observations ([2]; drug loading of 2, 200 mg/kg) was “limb weakness at day 1 but recovered by day 3”, the “loss in body weight” value ([2]; drug loading of 2, 200 mg/kg) was 25% and the MTD ([2]; drug loading of 2, single dose tail vein, BALB/c mice) was greater than 100 mg/kg. For the same molecule, the clinical observations ([2]; drug loading of 5, 100 mg/kg) was “slight limpness and closed front limbs but recovered by day 3”, the weight loss ([2]; drug loading of 5, 100 mg/kg) was 27% and the clinical observations ([2]; drug loading of 5, 200 mg/kg) was “limpness and closed front limbs and weakness at days 1 and 2”. For the same molecule, the clinical observations ([2]; drug loading of 5, 25 and 50 mg/kg) was “no signs of toxicity or weight loss”, the clinical observations ([2]; drug loading of 9, 25 mg/kg) was “no signs of toxicity or weight loss” and the clinical observations ([2]; drug loading of 9, 50 mg/kg) was “slight limpness on day 2 but recovered by day 3”. The weight loss ([2]; drug loading of 9, 50 mg/kg, by day 5) was 30%, the clinical observations ([2]; drug loading of 9, 100 and 200 mg/kg) was “limpness, closed front limbs and weakness by day 1 which continued through day 2” and the weight loss (H460 xenograft; EDC 0.1 mg/kg q7dx2, paclitaxel 15 mg/kg q2dx5, H460 xenograft) was “no weight loss”. The “growth inhibition of the tumor compared to vehicle” value (H460 xenograft; drug loading of 8, 0.1 mg/kg i.v. q7dx2, H460 xenograft) was 38%, the “growth inhibition of the tumor compared to vehicle” value (H460 xenograft; drug loading of 8, 1 mg/kg i.v. q7dx2, H460 xenograft) was 73% and the “growth inhibition of the tumor” value (PANC-1 xenograft; 0.2 mg/kg i.v. q7dx3 combined with 60 mg/kg gemcitabine i.p. q3dx5) was 88%. For the same molecule, the tumor response (PANC-1 xenograft; 1 and 5 mg/kg i.v. q7dx3 combined with 60 mg/kg gemcitabine i.p. q3dx5) was “tumor regression”, the “growth inhibition of the tumor compared to vehicle” value (PANC-1 xenograft; drug loading of 8, 0.2 mg/kg i.v. q7dx3, day 28 post-initial dose) was 38% and the “growth inhibition of the tumor compared to vehicle” value (PANC-1 xenograft; drug loading of 8, 1 mg/kg i.v. q7dx3, day 28 post-initial dose) was 48%. For the same molecule, the “growth inhibition of the tumor compared to vehicle” value (PANC-1 xenograft; drug loading of 8, 5 mg/kg i.v. q7dx3, day 28 post-initial dose) was 76%.
